# Read-outs that look alike come from different tables or passages of the source. Marks after values point to notes of the source that are not given here.
# Key:
# Assay type in all cases: in vivo, human
# [1] = system: patients with RMS; experiment: Gd-enhancing T1 lesions per scan, Phase III Studies I and II; conditions: for Gd-enhancing T1 lesions rate reduction (%): vs teriflunomide
# Method: (§1) Ofatumumab was investigated in 1882 patients with RMS from two identical Phase III randomized, double-blind, double-dummy, active-comparator controlled, parallel-group, multicenter studies of identical design (Study I and Study II). Patients were randomized to receive either ofatumumab, OMB (20 mg s.c injections every 4 weeks, after an initial loading regimen of 3 injections on Day 1, 7, and 14), or teriflunomide, TER (14 mg p.o. once a day) as active comparator. For brevity, the teriflunomide data are not shown hereinafter.
# (§2) The maximum treatment duration for an individual patient was 30 study months (approximately 2.5 years). The two studies included a total of 71 patients of Asian race (36 patients in ofatumumab and 35 patients in teriflunomide treatment groups). This Example also includes the Asian patients data from oncology studies (Study A and Study B), as supportive data, where required.
# The number of Gd-enhancing T1 lesions per scan was a key secondary efficacy endpoint in the pivotal Phase III studies.
# [2] = system: patients with RMS
# Method: as §1, §2
# For the safety analyses of this report, non-serious treatment emergent adverse events (TEAEs) up to and including safety cut-off (i.e. 100 days after last study drug administration) and serious TEAEs regardless of the safety cutoff were considered (if reported prior to the data cut-off of Studies I and II). Common terminology criteria for adverse events (CTCAE) grading was used to record the severity of each AE. The latest version of CTCAE available at the time of TEAE reporting was used. […] The three most frequently reported AEs by SOC were ‘General disorders and administration site conditions’ ‘Infections and infestations’ and ‘Injury, poisoning and procedural complications’ in the Asian and ROW subgroups by race (Table 7). […] In the Asian subgroup, 1 patient experienced SAEs of urinary tract infections, urosepsis and testicular infarction in the ofatumumab group and 1 patient reported an SAE of nephrolithiasis in the teriflunomide group (Table 8). Due to the small number of Asian patients by race and region, results should be interpreted with caution.
# AEs of special interest were summarized by risk name, PT and treatment. Furthermore, the incidence of any AE that fulfilled the search terms as defined in eCRS were summarized by risk name, level, and maximum CTCAE grade. In this section, AESIs are first described for subgroups by race and then by region. […] The definitions of AEs of special interest correspond to the identified or potential risks for ofatumumab and its class of drug as well as those for the comparator (teriflunomide). AESIs, based on the safety profiles of ofatumumab, comparator, and other anti-CD20 mABs are: • Injection-related reactions including injection-systemic reaction and injection-site • reactions • Infections, including opportunistic infections, HBV infection reactivation and PML • Malignant and premalignant disorders • Hepatic Safety • Neutropenia
# [3] = system: patients with RMS; experiment: Time to confirmed disability worsening (3mCDW, 6mCDW), Phase III Studies I and II; conditions: for 3mCDW event rate n/N (%) / 3mCDW events n / 6mCDW event rate n/N (%) / 6mCDW events n: FAS
# Method: as §1, §2
# Time to 3 mCDW and 6 mCDW were key secondary efficacy endpoints in the pivotal Phase III studies.
# [4] = system: patients with RMS; experiment: Annualized rate of new or enlarging T2 lesions, Phase III Studies I and II; conditions: for New or enlarging T2 lesions rate reduction (%): vs teriflunomide
# Method: as §1, §2
# The annualized rate of new or enlarging T2 lesions was a key secondary efficacy endpoint in the pivotal Phase III studies.
# [5] = system: patients with RMS; experiment: Phase II study, Japan and non-Japan subgroups of patients with RMS
substance,measurement,setting,value
ofatumumab [OMB],Gd-enhancing lesions/number of scans (lesion rate),[1]; Asian,(0.019)
same,Number of Gd-enhancing lesions,[1]; Asian,1/54
same,Gd-enhancing lesions/number of scans (lesion rate),[1]; Rest of World,(0.031)
same,Number of Gd-enhancing lesions,[1]; Rest of World,51/1666
same,Reduction of mean number of Gd-enhancing T1 lesions per scan compared with teriflunomide,[1]; overall population,95.8%
same,Gd-enhancing T1 lesions rate reduction (%),[1]; Asian,93.8/0.022* %
same,Gd-enhancing T1 lesions rate reduction (%),[1]; Rest of World,95.9/<0.001* %
same,"TEAE: Gastrointestinal disorders, %",[2]; Asian (race),(11.1) %
same,"TEAE: Nervous system disorders, %",[2]; Asian (race),(11.1) %
same,"TEAE: Reproductive system and breast disorders, %",[2]; Asian (race),(11.1) %
same,"AESI: Injection-site reaction (any reaction), %",[2]; Rest of World (race),(11.1) %
same,"AE by PT: alopecia, %",[2]; in vivo,5.7%
same,"AE by PT: alopecia, patients",[2]; in vivo,52
same,"AE by PT: nasopharyngitis, %",[2]; in vivo,18.5%
same,"AE by PT: nasopharyngitis, patients",[2]; in vivo,168
same,"AE by PT: pyrexia, %",[2]; in vivo,33.3%
same,"AE by PT: pyrexia, patients",[2]; in vivo,12
same,"AE by PT: upper respiratory tract infection, %",[2]; in vivo,11.1%
same,"AE by PT: upper respiratory tract infection, patients",[2]; in vivo,4
same,"AESI Neutropenia, %",[2]; in vivo,(1.0) %
same,"AESI: Drug abuse and dependence, %",[2]; in vivo,0.1%
same,"AESI: Drug abuse and dependence, number of events [E]",[2]; in vivo,1
same,"AESI: Herpes viral infections, %",[2]; in vivo,5.1%
same,"AESI: Herpes viral infections, number of events [E]",[2]; in vivo,61
same,"AESI: Injection-site reaction (any reaction), %",[2]; in vivo,(2.8) %
same,"AESI: Lower Respiratory tract Infections, %",[2]; in vivo,3.3%
same,"AESI: Lower Respiratory tract Infections, number of events [E]",[2]; in vivo,31
same,"AESI: Neoplasms, %",[2]; in vivo,2.6%
same,"AESI: Neoplasms, number of events [E]",[2]; in vivo,28
same,"AESI: Neutropenia, %",[2]; in vivo,1.0%
same,"AESI: Neutropenia, number of events [E]",[2]; in vivo,13
same,"AESI: Opportunistic infections, %",[2]; in vivo,0.1%
same,"AESI: Opportunistic infections, number of events [E]",[2]; in vivo,1
same,"AESI: Pregnancy, %",[2]; in vivo,0.1%
same,"AESI: Pregnancy, number of events [E]",[2]; in vivo,1
same,"AESI: Premalignant disorders, %",[2]; in vivo,0.8%
same,"AESI: Premalignant disorders, number of events [E]",[2]; in vivo,9
same,"AESI: Risk of malignancy, %",[2]; in vivo,0.5%
same,"AESI: Risk of malignancy, number of events [E]",[2]; in vivo,5
same,"AESI: Suicidal Ideation and Behavior, %",[2]; in vivo,0.9%
same,"AESI: Suicidal Ideation and Behavior, number of events [E]",[2]; in vivo,9
same,"AESI: Urinary tract infection, number of events [E]",[2]; in vivo,4
same,"AESI: Varicella-Zoster virus infections, %",[2]; in vivo,2.0%
same,"AESI: Varicella-Zoster virus infections, number of events [E]",[2]; in vivo,19
same,"Drug abuse and dependence, %",[2]; in vivo,(0.1) %
same,"Pregnancy, %",[2]; in vivo,(0.1) %
same,"SAE by PT: Appendicitis, %",[2]; in vivo,0.9%
same,"SAE by PT: Appendicitis, patients",[2]; in vivo,8
same,"Serious TEAE: Blood and lymphatic system disorders, %",[2]; in vivo,(0.2) %
same,"Serious TEAE: Cardiac disorders, %",[2]; in vivo,(0.3) %
same,"Serious TEAE: Ear and labyrinth disorders, %",[2]; in vivo,(0.3) %
same,"Serious TEAE: Gastrointestinal disorders, %",[2]; in vivo,(0.9) %
same,"Serious TEAE: General disorders and administration site conditions, %",[2]; in vivo,(0.3) %
same,"Serious TEAE: Hepatobiliary disorders, %",[2]; in vivo,(0.5) %
same,"Serious TEAE: Immune system disorders, %",[2]; in vivo,(0.1) %
same,"Serious TEAE: Injury, poisoning and procedural complications, %",[2]; in vivo,(1.4%
same,"Serious TEAE: Investigations, %",[2]; in vivo,(0.2) %
same,"Serious TEAE: Musculoskeletal and connective tissue disorders, %",[2]; in vivo,(0.9) %
same,"Serious TEAE: Neoplasms benign, malignant and unspecified (incl cysts and polyps), %",[2]; in vivo,(1.0) %
same,"Serious TEAE: Nervous system disorders, %",[2]; in vivo,(0.8) %
same,"Serious TEAE: Psychiatric disorders, %",[2]; in vivo,(1.1) %
same,"Serious TEAE: Respiratory, thoracic and mediastinal disorders, %",[2]; in vivo,(0.2) %
same,"Serious TEAE: Skin and subcutaneous tissue disorders, %",[2]; in vivo,(0.1) %
same,"TEAE: Cardiac disorders, %",[2]; in vivo,(2.9) %
same,"TEAE: Congenital, familial and genetic disorders, %",[2]; in vivo,(0.1) %
same,"TEAE: Endocrine disorders, %",[2]; in vivo,(1.0) %
same,"TEAE: Gastrointestinal disorders, %",[2]; in vivo,(24.2) %
same,"TEAE: Hepatobiliary disorders, %",[2]; in vivo,(1.9) %
same,"TEAE: Immune system disorders, %",[2]; in vivo,(1.8) %
same,"TEAE: Neoplasms benign, malignant and unspecified (incl cysts and polyps), %",[2]; in vivo,(2.6) %
same,"TEAE: Nervous system disorders, %",[2]; in vivo,(29.5) %
same,"TEAE: Reproductive system and breast disorders, %",[2]; in vivo,(5.9) %
same,"TEAE: Social circumstances, %",[2]; in vivo,(0.3) %
same,"TEAE: Vascular disorders, %",[2]; in vivo,(6.0) %
same,3mCDW event rate n/N (%),[3]; Asian (race),(8.3) %
same,3mCDW events n,[3]; Asian (race),3/36
same,6mCDW event rate n/N (%),[3]; Asian (race),(8.3) %
same,6mCDW events n,[3]; Asian (race),3/36
same,3mCDW event rate n/N (%),[3]; Rest of World (race),(9.3) %
same,3mCDW events n,[3]; Rest of World (race),85/910
same,6mCDW event rate n/N (%),[3]; Rest of World (race),(7.5) %
same,6mCDW events n,[3]; Rest of World (race),68/910
same,3mCDW risk reduction compared with teriflunomide,[3]; overall population,33.0%
same,6mCDW risk reduction compared with teriflunomide,[3]; overall population,31.0%
same,New or enlarging lesions/patient years (lesion years),[4]; Asian,(1.00)
same,Number of new or enlarging lesions,[4]; Asian,44/44
same,New or enlarging lesions/patient years (lesion years),[4]; Rest of World,(0.84
same,Number of new or enlarging lesions,[4]; Rest of World,1185/1404
same,Reduction of rate of new or enlarging T2 lesions compared with teriflunomide,[4]; overall population,82.9%
same,New or enlarging T2 lesions rate reduction (%),[4]; Asian,59.0/0.041* %
same,New or enlarging T2 lesions rate reduction (%),[4]; Rest of World,83.3/<0.001* %
same,Depletion of CD19+ B-cells and CD3+CD20+ T-cells,[5],rapid and consistent depletion
same,Efficacy vs. placebo in lesion suppression,[5]; Phase II study,superior efficacy

# Reference: US20240228647A1, “OFATUMUMAB FOR TREATING MULTIPLE SCLEROSIS IN ASIAN PATIENTS” (Novartis AG, priority 2021, published 2024)
